Results: IntAct's records for PubMed 9311911

B1: Protein STE5 (Saccharomyces cerevisiae), P32917 (parent)
chain: MMETPTDNIVSPFHNFGSSTQYSGTLSRTPNQIIELEKPSTLSPLSRGKKWTEKLARFQRSSAKKKRFSPSPISSSTFSFSPKSRVTSSNSSGNEDGNLMNTPSTVSTDYLPQHPHRTSSLPRPNSNLFHASNSNLSRANEPPRAENLSDNIPPKVAPFGYPIQRTSIKKSFLNASCTLCDEPISNRRKGEKIIELACGHLSHQECLIISFGTTSKADVRALFPFCTKCKKDTNKAVQCIPENDELKDILISDFLIHKIPDSELSITPQSRFPPYSPLLPPFGLSYTPVERQTIYSQAPSLNPNLILAAPPKERNQIPQKKSNYTFLHSPLGHRRIPSGANSILADTSVALSANDSISAVSNSVRAKDDETKTTLPLLRSYFIQILLNNFQEELQDWRIDGDYGLLRLVDKLMISKDGQRYIQCWCFLFEDAFVIAEVDNDVDVLEIRLKNLEVFTPIANLRMTTLEASVLKCTLNKQHCADLSDLYIVQNINSDESTTVQKWISGILNQDFVFNEDNITSTLPILPIIKNFSKDVGNGRHETSTFLGLINPNKVVEVGNVHDNDTVIIRRGFTLNSGECSRQSTVDSIQSVLTTISSILSLKREKPDNLAIILQIDFTKLKEEDSLIVVYNSLKALTIKFARLQFCFVDRNNYVLDYGSVLHKIDSLDSISNLKSKSSSTQFSPIWLKNTLYPENIHEHLGIVAVSNSNMEAKKSILFQDYRCFTSFGRRRPNELKIKVGYLNVDYSDKIDELVEASSWTFVLETLCYSFGLSFDEHDDDDEEDNDDSTDNELDNSSGSLSDAESTTTIHIDSPFDNENATANMVNDRNLLTEGEHSNIENLETVASSVQPALIPNIRFSLHSEEEGTNENENENDMPVLLLSDMDKGIDGITRRSSFSSLIESGNNNCPLHMDYI
partner: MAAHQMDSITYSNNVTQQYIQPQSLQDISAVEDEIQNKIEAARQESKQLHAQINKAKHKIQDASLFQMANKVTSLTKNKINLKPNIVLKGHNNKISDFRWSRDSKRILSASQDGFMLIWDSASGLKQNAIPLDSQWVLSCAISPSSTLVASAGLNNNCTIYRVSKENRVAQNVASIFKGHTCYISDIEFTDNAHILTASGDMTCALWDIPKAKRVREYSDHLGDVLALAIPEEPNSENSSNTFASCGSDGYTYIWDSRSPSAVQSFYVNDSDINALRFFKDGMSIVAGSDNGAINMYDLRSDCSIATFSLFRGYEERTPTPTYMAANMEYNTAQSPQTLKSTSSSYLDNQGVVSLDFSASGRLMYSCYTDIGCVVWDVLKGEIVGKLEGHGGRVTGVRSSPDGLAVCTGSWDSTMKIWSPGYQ

Variants of: B1
Conditions: with gbb_yeast STE4, P18851
With C177A;C180A the “effect of a mutation on the interaction” value was “disrupting interaction”.
